Data published in paper PMC9332313, “Folding and Binding Mechanisms of the SH2 Domain from Crkl” (Biomolecules, 2022).
Square brackets hold non-standard residues; d marks the D form. Ends that are not written are not given here. * marks the point of attachment. pY = N[C@@H](Cc1ccc(OP(=O)(O)O)cc1)C(=O)O; Dansyl = CN(C)c1cccc2c(S(=O)(=O)*)cccc12

How the values were obtained:
Conditions in all cases: both partners purified
[1] = target: T1, SH2 domain of Crkl protein (residues 1-111), H33A variant (UniProt P46109 1-111, H33A); assay: stopped-flow fluorescence kinetics (FRET); dansyl-Pax112-123 constant at 2 μM mixed with Crkl-SH2 2 to 10 μM (pseudo-first-order, kon); koff by displacement of the preincubated 2 µM complex with excess non-dansylated Pax112-123 (30 μM); 283 K; 50 mM TrisHCl pH 9.0, 0.5 M NaCl
T1 construct: Crkl adaptor protein, SH2 domain, residues 1-111, His33 replaced by alanine; Site-directed mutant of m1 (QuikChange); source: E. coli BL21 (DE3), purified (HisTrap nickel column, desalting); not shown: His tag, N-terminal, kept
T1 sequence (P46109 1-111 H33A): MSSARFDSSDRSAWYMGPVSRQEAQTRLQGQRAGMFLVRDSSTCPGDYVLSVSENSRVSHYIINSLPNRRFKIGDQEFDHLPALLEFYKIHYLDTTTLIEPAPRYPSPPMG

[2] = target: T2, SH2 domain of Crkl protein (residues 1-111), H80A variant (UniProt P46109 1-111, H80A); assay: as above
T2 construct: Crkl adaptor protein, SH2 domain, residues 1-111, His80 replaced by alanine; Site-directed mutant of m1 (QuikChange); source: E. coli BL21 (DE3), purified (HisTrap nickel column, desalting); not shown: His tag, N-terminal, kept
T2 sequence (P46109 1-111 H80A): as the sequence (P46109 1-111 H33A) above, with A33H, H80A counted along it

[3] = target: T3, SH2 domain of Crkl protein (residues 1-111), H91A variant (UniProt P46109 1-111, H91A); assay: as above
T3 construct: Crkl adaptor protein, SH2 domain, residues 1-111, His91 replaced by alanine; Site-directed mutant of m1 (QuikChange); source: E. coli BL21 (DE3), purified (HisTrap nickel column, desalting); not shown: His tag, N-terminal, kept
T3 sequence (P46109 1-111 H91A): as the sequence (P46109 1-111 H33A) above, with A33H, H91A counted along it

[4] = target: T1, SH2 domain of Crkl protein (residues …); assay: stopped-flow fluorescence kinetics (FRET); dansyl-Pax112-123 constant at 2 μM mixed with Crkl-SH2 2 to 10 μM (pseudo-first-order, kon); koff by displacement of the preincubated 2 µM complex with excess non-dansylated Pax112-123 (30 μM); 283 K; 50 mM TrisHCl pH 8.5, 0.5 M NaCl
[5] = target: T2, SH2 domain of Crkl protein (residues …); assay: as above
[6] = target: T4, SH2 domain of Crkl protein (residues 1-111), wild type (UniProt P46109 1-111); assay: as above
T4 construct: Crkl adaptor protein, SH2 domain, residues 1-111; Subcloned in pET28b+; all experiments were done on the N-terminally His-tagged protein; also called Crkl-SH2; Crkl SH2 domain; source: E. coli BL21 (DE3), purified (HisTrap nickel column, desalting); not shown: His tag, N-terminal, kept
T4 sequence (P46109 1-111): as the sequence (P46109 1-111 H33A) above, with A33H counted along it

[7] = target: T1, SH2 domain of Crkl protein (residues …); assay: stopped-flow fluorescence kinetics (FRET); dansyl-Pax112-123 constant at 2 μM mixed with Crkl-SH2 2 to 10 μM (pseudo-first-order, kon); koff by displacement of the preincubated 2 µM complex with excess non-dansylated Pax112-123 (30 μM); 283 K; 50 mM BisTRIS pH 6.8, 0.5 M NaCl
[8] = target: T2, SH2 domain of Crkl protein (residues …); assay: as above
[9] = target: T3, SH2 domain of Crkl protein (residues …); assay: as above
[10] = target: T4, SH2 domain of Crkl protein (residues …); assay: as above

Kd [1]: 4.2 ± 0.5 µM
koff [1]: 44.7 ± 4 s⁻¹
kon [1]: 1.06e+07 ± 1e+06 M⁻¹ s⁻¹
Kd [2]: 2.8 ± 0.3 µM
koff [2]: 34 ± 2.3 s⁻¹
kon [2]: 1.2e+07 ± 900000 M⁻¹ s⁻¹
Kd [3]: 2.9 ± 0.1 µM
koff [3]: 36.4 ± 0.5 s⁻¹
kon [3]: 1.27e+07 ± 500000 M⁻¹ s⁻¹
Kd [4]: 2.1 ± 0.3 µM
koff [4]: 26.9 ± 2.8 s⁻¹
kon [4]: 1.26e+07 ± 1.4e+06 M⁻¹ s⁻¹
Kd [5]: 3.2 ± 0.5 µM
koff [5]: 32.5 ± 2.7 s⁻¹
kon [5]: 1.02e+07 ± 1.2e+06 M⁻¹ s⁻¹
Kd [6]: 3.5 ± 0.3 µM
koff [6]: 41.6 ± 0.9 s⁻¹
kon [6]: 1.2e+07 ± 1.1e+06 M⁻¹ s⁻¹
Kd [7]: 3.4 ± 0.2 µM
koff [7]: 22.4 ± 0.5 s⁻¹
kon [7]: 6.6e+06 ± 400000 M⁻¹ s⁻¹
Kd [8]: 3.1 ± 0.2 µM
koff [8]: 21.6 ± 0.4 s⁻¹
kon [8]: 7.1e+06 ± 400000 M⁻¹ s⁻¹
Kd [9]: 3 ± 0.1 µM
koff [9]: 23.4 ± 0.4 s⁻¹
kon [9]: 7.8e+06 ± 300000 M⁻¹ s⁻¹
Kd [10]: 2.4 ± 0.1 µM
koff [10]: 21.4 ± 0.2 s⁻¹
kon [10]: 8.9e+06 ± 400000 M⁻¹ s⁻¹
B1: dansylated Pax_(112–123) peptide (Dans-GEEEHV-pY-SFPNK) (peptide)
peptide: Dansyl-GEEEHV[pY]SFPNK
notes: The dansyl group is the FRET acceptor of Trp14 of the SH2 domain; source: synthetic peptide, bought: GenScript
